Results: paper PMC6555819, “Comprehensive study of nuclear receptor DNA binding provides a revised framework for understanding receptor specificity”

How the values were obtained:
Assay in all cases: no ligand; PBM; 270 nM : 90 nM RXRa; PBS pH 7.4, 2% milk, 0.02% Triton X-100, 1 mM DTT, BSA, 0.4 mg/ml salmon testes DNA
VDR:RXRa = VDR:RXRa (Homo sapiens, UniProt P11473;P19793 full;full); details: tags: His kept;His cleaved; copies: 1;1; label: surface-attached array probe
Outline: (§1)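 For binding z-scores, the reference was random background probes on custom Agilent 4×180K protein-binding microarrays. These arrays were incubated 1 h with ligand-free nuclear receptor dimers in PBS pH 7.4, 2% milk, 0.02% Triton X-100, 1 mM DTT, 0.2 mg/mL BSA and 0.4 mg/ml salmon testes DNA. Fluorescence was scanned after antibody detection of each partner (one per run) and regression-normalized.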

FXR:RXRa = FXR:RXRa (Homo sapiens, UniProt Q96RI1;P19793 full;full); details: tags: His kept;His cleaved; copies: 1;1; label: surface-attached array probe
FXR:RXRa, sequence (Q96RI1 whole entry, chain 1 of 2): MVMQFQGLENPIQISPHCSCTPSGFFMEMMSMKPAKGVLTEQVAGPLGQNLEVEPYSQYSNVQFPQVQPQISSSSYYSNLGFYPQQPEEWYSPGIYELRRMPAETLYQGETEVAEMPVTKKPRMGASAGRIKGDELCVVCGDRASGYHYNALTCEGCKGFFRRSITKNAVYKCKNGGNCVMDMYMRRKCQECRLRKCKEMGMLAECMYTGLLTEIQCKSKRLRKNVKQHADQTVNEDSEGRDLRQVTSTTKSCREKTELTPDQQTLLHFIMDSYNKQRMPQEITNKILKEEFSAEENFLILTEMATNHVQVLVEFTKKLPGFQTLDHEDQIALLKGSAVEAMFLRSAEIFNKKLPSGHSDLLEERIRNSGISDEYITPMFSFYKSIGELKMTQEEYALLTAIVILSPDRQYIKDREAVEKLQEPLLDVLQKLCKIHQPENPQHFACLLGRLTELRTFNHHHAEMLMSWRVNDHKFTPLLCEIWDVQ
FXR:RXRa, sequence (P19793 whole entry, chain 2 of 2): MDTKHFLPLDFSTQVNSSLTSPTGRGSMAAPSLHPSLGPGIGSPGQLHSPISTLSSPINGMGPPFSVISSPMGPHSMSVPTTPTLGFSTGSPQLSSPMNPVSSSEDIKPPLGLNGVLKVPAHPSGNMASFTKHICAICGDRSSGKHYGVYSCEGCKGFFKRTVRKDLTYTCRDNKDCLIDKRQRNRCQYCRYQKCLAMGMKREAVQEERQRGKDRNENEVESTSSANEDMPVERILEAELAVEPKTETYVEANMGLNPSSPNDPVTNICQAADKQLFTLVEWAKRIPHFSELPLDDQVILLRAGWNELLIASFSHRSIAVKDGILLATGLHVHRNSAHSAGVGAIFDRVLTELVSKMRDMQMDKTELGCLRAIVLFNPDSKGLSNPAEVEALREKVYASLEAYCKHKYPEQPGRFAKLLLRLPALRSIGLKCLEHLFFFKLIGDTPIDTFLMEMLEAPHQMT
Outline: as §1

PPARa:RXRa = PPARa:RXRa (Homo sapiens, UniProt Q07869;P19793 full;full); details: tags: GST kept;His cleaved; copies: 1;1; label: surface-attached array probe
PPARa:RXRa, sequence (Q07869 whole entry, chain 1 of 2): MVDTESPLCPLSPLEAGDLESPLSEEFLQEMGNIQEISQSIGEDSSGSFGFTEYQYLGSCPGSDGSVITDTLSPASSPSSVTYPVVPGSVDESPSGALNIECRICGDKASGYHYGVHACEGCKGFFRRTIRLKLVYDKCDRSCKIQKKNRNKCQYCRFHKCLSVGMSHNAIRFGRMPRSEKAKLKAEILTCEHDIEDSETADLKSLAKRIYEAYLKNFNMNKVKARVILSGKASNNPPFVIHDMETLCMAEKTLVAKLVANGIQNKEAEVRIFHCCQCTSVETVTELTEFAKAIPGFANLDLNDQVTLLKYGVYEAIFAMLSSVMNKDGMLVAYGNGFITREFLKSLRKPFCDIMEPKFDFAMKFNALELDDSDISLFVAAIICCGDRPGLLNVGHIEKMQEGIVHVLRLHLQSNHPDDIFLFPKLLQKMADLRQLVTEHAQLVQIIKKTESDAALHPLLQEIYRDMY
PPARa:RXRa, sequence (P19793 whole entry, chain 2 of 2): as the sequence (P19793 whole entry, chain 2 of 2) above
Outline: as §1

RARg:RXRa = RARg:RXRa (Homo sapiens, UniProt P13631;P19793 full;full); details: tags: His kept;His cleaved; copies: 1;1; label: surface-attached array probe
RARg:RXRa, sequence (P13631 whole entry, chain 1 of 2): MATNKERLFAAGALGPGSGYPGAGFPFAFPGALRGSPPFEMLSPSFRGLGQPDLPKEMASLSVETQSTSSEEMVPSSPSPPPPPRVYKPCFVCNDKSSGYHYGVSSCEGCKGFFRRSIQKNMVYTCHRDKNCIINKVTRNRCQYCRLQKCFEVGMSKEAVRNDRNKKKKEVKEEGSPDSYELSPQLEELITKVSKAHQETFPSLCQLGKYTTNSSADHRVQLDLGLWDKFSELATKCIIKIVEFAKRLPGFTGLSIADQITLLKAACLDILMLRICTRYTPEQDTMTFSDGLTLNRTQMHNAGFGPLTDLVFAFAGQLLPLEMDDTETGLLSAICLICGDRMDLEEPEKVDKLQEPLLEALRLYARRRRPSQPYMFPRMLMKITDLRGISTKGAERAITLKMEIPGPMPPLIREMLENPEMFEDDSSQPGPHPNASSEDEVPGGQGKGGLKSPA
RARg:RXRa, sequence (P19793 whole entry, chain 2 of 2): as the sequence (P19793 whole entry, chain 2 of 2) above
Outline: as §1

VDR:RXRa, sequence (P11473 whole entry, chain 1 of 2): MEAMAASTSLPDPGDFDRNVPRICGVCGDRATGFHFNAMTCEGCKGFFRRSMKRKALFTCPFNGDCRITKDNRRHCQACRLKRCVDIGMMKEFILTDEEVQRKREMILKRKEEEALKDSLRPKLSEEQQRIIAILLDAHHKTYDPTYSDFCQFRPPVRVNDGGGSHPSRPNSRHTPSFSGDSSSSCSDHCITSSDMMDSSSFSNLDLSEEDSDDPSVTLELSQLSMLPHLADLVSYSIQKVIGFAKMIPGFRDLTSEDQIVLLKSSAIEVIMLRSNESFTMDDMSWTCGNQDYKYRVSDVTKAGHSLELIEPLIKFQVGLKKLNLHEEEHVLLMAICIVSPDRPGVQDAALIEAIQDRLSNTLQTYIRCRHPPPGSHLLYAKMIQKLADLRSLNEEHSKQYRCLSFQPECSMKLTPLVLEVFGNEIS
VDR:RXRa, sequence (P19793 whole entry, chain 2 of 2): as the sequence (P19793 whole entry, chain 2 of 2) above

| Binder | binding signal (VDR:RXRa) | binding signal (FXR:RXRa) | binding signal (PPARa:RXRa) | binding signal (RARg:RXRa) |
| --- | --- | --- | --- | --- |
| NRC3_random_hg19_190_o1 (dsDNA) DNA 1: GCGCCTCAATTCTAACTTGATTGCTTCCCTAGAGGCGCGATTGACAGCGTAGAATGAAGG DNA 2: CCTTCATTCTACGCTGTCAATCGCGCCTCTAGGGAAGCAATCAAGTTAGAATTGAGGCGC | 0.11 PBM z-score against 500 random probes | 0.46 PBM z-score against 500 random probes | – | – |
| NRC3_random_hg19_55_o1 (dsDNA) DNA 1: GCTTGAACGCCTGCTTTGTGCTGATGCAGATCCAGAGCGATTGACAGCGTAGAATGAAGG DNA 2: CCTTCATTCTACGCTGTCAATCGCTCTGGATCTGCATCAGCACAAAGCAGGCGTTCAAGC | -0.59 PBM z-score against 500 random probes | -0.23 PBM z-score against 500 random probes | – | – |
| NRC3_wobSeed89_DR3_C26G_o1 (dsDNA) DNA 1: GCCTATGTAGGTTAAGGGGGTCATTGAGTTTGAAAGGCGATTGACAGCGTAGAATGAAGG DNA 2: CCTTCATTCTACGCTGTCAATCGCCTTTCAAACTCAATGACCCCCTTAACCTACATAGGC | 8.2 PBM z-score against 500 random probes | – | 6.55 PBM z-score against 500 random probes | – |
| NRC3_wobSeed123_DR5_G26A_o1 (dsDNA) DNA 1: GCCCTCGGAGGACAACAGGAGGTCAAAGCTGCCAGAGCGATTGACAGCGTAGAATGAAGG DNA 2: CCTTCATTCTACGCTGTCAATCGCTCTGGCAGCTTTGACCTCCTGTTGTCCTCCGAGGGC | 3.35 PBM z-score against 500 random probes | – | – | 4.36 PBM z-score against 500 random probes |
| NRC3_wobSeed124_DR5_C13G_o1 (dsDNA) DNA 1: GCCCTACTGGGCGATTCAGAGGTCATTGATCATATGGCGATTGACAGCGTAGAATGAAGG DNA 2: CCTTCATTCTACGCTGTCAATCGCCATATGATCAATGACCTCTGAATCGCCCAGTAGGGC | 3.28 PBM z-score against 500 random probes | – | 3.07 PBM z-score against 500 random probes | – |
| NRC3_random_hg19_370_o1 (dsDNA) DNA 1: GCTTTCTTTCTCTCTTGTCTGATTGCTCTGGCTAGAGCGATTGACAGCGTAGAATGAAGG DNA 2: CCTTCATTCTACGCTGTCAATCGCTCTAGCCAGAGCAATCAGACAAGAGAGAAAGAAAGC | 0.44 PBM z-score against 500 random probes | – | – | – |
| NRC3_random_hg19_125_o1 (dsDNA) DNA 1: GCCAACCTACCAAACCATAACCAGTGTGTTTGCTCCGCGATTGACAGCGTAGAATGAAGG DNA 2: CCTTCATTCTACGCTGTCAATCGCGGAGCAAACACACTGGTTATGGTTTGGTAGGTTGGC | 0.33 PBM z-score against 500 random probes | – | – | – |
| NRC3_random_hg19_353_o1 (dsDNA) DNA 1: GCATAGAACTTAACTACCACCTCTCATTACCTGGAGGCGATTGACAGCGTAGAATGAAGG DNA 2: CCTTCATTCTACGCTGTCAATCGCCTCCAGGTAATGAGAGGTGGTAGTTAAGTTCTATGC | 0.31 PBM z-score against 500 random probes | – | -0.07 PBM z-score against 500 random probes | – |
| NRC3_random_hg19_274_o1 (dsDNA) DNA 1: GCTTCGTGCCCTTCCCTTGGACAGACTCCCTTGGCAGCGATTGACAGCGTAGAATGAAGG DNA 2: CCTTCATTCTACGCTGTCAATCGCTGCCAAGGGAGTCTGTCCAAGGGAAGGGCACGAAGC | 0.25 PBM z-score against 500 random probes | – | – | – |
| NRC3_random_hg19_191_o1 (dsDNA) DNA 1: GCAGGAGAGACAGAGGAAGAGATGTGACATCAGAAGGCGATTGACAGCGTAGAATGAAGG DNA 2: CCTTCATTCTACGCTGTCAATCGCCTTCTGATGTCACATCTCTTCCTCTGTCTCTCCTGC | 0.21 PBM z-score against 500 random probes | – | – | – |
| NRC3_random_hg19_17_o1 (dsDNA) DNA 1: GCCTGCAGTTTCACTTTGCATGTCTTCTTTCCTCAAGCGATTGACAGCGTAGAATGAAGG DNA 2: CCTTCATTCTACGCTGTCAATCGCTTGAGGAAAGAAGACATGCAAAGTGAAACTGCAGGC | 0.19 PBM z-score against 500 random probes | – | – | – |
| NRC3_random_hg19_108_o1 (dsDNA) DNA 1: GCTAGGAATGTGAGTTTCTCTAAGTTCTATTCCTGGGCGATTGACAGCGTAGAATGAAGG DNA 2: CCTTCATTCTACGCTGTCAATCGCCCAGGAATAGAACTTAGAGAAACTCACATTCCTAGC | 0.17 PBM z-score against 500 random probes | – | – | 0.22 PBM z-score against 500 random probes |
| NRC3_random_hg19_260_o1 (dsDNA) DNA 1: GCGGAAGTCCTCTTTGCCACATTTCCAACAGATGGCGCGATTGACAGCGTAGAATGAAGG DNA 2: CCTTCATTCTACGCTGTCAATCGCGCCATCTGTTGGAAATGTGGCAAAGAGGACTTCCGC | 0.14 PBM z-score against 500 random probes | – | 0.42 PBM z-score against 500 random probes | – |
| NRC3_random_hg19_438_o1 (dsDNA) DNA 1: GCTGTCGCCATCAAGCTACCATTGACTTTCTTCACAGCGATTGACAGCGTAGAATGAAGG DNA 2: CCTTCATTCTACGCTGTCAATCGCTGTGAAGAAAGTCAATGGTAGCTTGATGGCGACAGC | -0.03 PBM z-score against 500 random probes | – | 0.12 PBM z-score against 500 random probes | – |
| NRC3_random_hg19_409_o1 (dsDNA) DNA 1: GCGACTGCACTCCAGCCTGGGTGACACAACAAGACTGCGATTGACAGCGTAGAATGAAGG DNA 2: CCTTCATTCTACGCTGTCAATCGCAGTCTTGTTGTGTCACCCAGGCTGGAGTGCAGTCGC | -0.08 PBM z-score against 500 random probes | – | – | – |
| NRC3_random_hg19_251_o1 (dsDNA) DNA 1: GCCTGTGGAATCCAACATGCCAAATGCTTGCTTGAGGCGATTGACAGCGTAGAATGAAGG DNA 2: CCTTCATTCTACGCTGTCAATCGCCTCAAGCAAGCATTTGGCATGTTGGATTCCACAGGC | -0.19 PBM z-score against 500 random probes | – | – | – |
| NRC3_random_hg19_115_o1 (dsDNA) DNA 1: GCATCACCTGAGGCCAGGAATTCGAACCAGCATGGCGCGATTGACAGCGTAGAATGAAGG DNA 2: CCTTCATTCTACGCTGTCAATCGCGCCATGCTGGTTCGAATTCCTGGCCTCAGGTGATGC | -0.3 PBM z-score against 500 random probes | – | -0.52 PBM z-score against 500 random probes | – |
| NRC3_random_hg19_161_o1 (dsDNA) DNA 1: GCTCTGTGGCCTCGGCTCTCCAGGACTCGGAGGCTCGCGATTGACAGCGTAGAATGAAGG DNA 2: CCTTCATTCTACGCTGTCAATCGCGAGCCTCCGAGTCCTGGAGAGCCGAGGCCACAGAGC | -0.38 PBM z-score against 500 random probes | – | – | – |
| NRC3_random_hg19_154_o1 (dsDNA) DNA 1: GCAAGCATAGCTTTGAGAGCAGTAAAGTGGTTCATTGCGATTGACAGCGTAGAATGAAGG DNA 2: CCTTCATTCTACGCTGTCAATCGCAATGAACCACTTTACTGCTCTCAAAGCTATGCTTGC | -0.41 PBM z-score against 500 random probes | – | – | – |
| NRC3_random_hg19_30_o1 (dsDNA) DNA 1: GCTGGAATGCAGTGGCACGATCACACATCACTGCAAGCGATTGACAGCGTAGAATGAAGG DNA 2: CCTTCATTCTACGCTGTCAATCGCTTGCAGTGATGTGTGATCGTGCCACTGCATTCCAGC | -0.46 PBM z-score against 500 random probes | – | – | – |
| NRC3_random_hg19_337_o1 (dsDNA) DNA 1: GCGTATTGAGCATCTATGATCTGCCAGTTAGGCTGCGCGATTGACAGCGTAGAATGAAGG DNA 2: CCTTCATTCTACGCTGTCAATCGCGCAGCCTAACTGGCAGATCATAGATGCTCAATACGC | -0.54 PBM z-score against 500 random probes | – | – | – |
| NRC3_random_hg19_3_o1 (dsDNA) DNA 1: GCGCCAGAGGTGGAATGATATGATATGTCTCTGTGTGCGATTGACAGCGTAGAATGAAGG DNA 2: CCTTCATTCTACGCTGTCAATCGCACACAGAGACATATCATATCATTCCACCTCTGGCGC | -0.61 PBM z-score against 500 random probes | – | – | – |
| NRC3_random_hg19_335_o1 (dsDNA) DNA 1: GCATCTATGTGCATATGGAAGAAAGGAATGCAAGATGCGATTGACAGCGTAGAATGAAGG DNA 2: CCTTCATTCTACGCTGTCAATCGCATCTTGCATTCCTTTCTTCCATATGCACATAGATGC | -0.62 PBM z-score against 500 random probes | – | – | – |
| NRC3_random_hg19_107_o1 (dsDNA) DNA 1: GCCTCAGGCTGAGTTGTGGTAGTGTAATCATAGCTCGCGATTGACAGCGTAGAATGAAGG DNA 2: CCTTCATTCTACGCTGTCAATCGCGAGCTATGATTACACTACCACAACTCAGCCTGAGGC | -0.64 PBM z-score against 500 random probes | – | – | -0.79 PBM z-score against 500 random probes |
| NRC3_random_hg19_132_o1 (dsDNA) DNA 1: GCCAATGCCAGCTACCAGGAGGCTGAGGTGTGAGAGGCGATTGACAGCGTAGAATGAAGG DNA 2: CCTTCATTCTACGCTGTCAATCGCCTCTCACACCTCAGCCTCCTGGTAGCTGGCATTGGC | -0.75 PBM z-score against 500 random probes | – | – | -0.61 PBM z-score against 500 random probes |
| NRC3_random_hg19_358_o1 (dsDNA) DNA 1: GCCTAGCAGCAACCAACCACAATGGCAAGGATGTAGGCGATTGACAGCGTAGAATGAAGG DNA 2: CCTTCATTCTACGCTGTCAATCGCCTACATCCTTGCCATTGTGGTTGGTTGCTGCTAGGC | -0.81 PBM z-score against 500 random probes | – | – | -0.41 PBM z-score against 500 random probes |
| NRC3_random_hg19_247_o1 (dsDNA) DNA 1: GCGCATGCCACAGGACTGGTAGGCAGCTCCATCTGCGCGATTGACAGCGTAGAATGAAGG DNA 2: CCTTCATTCTACGCTGTCAATCGCGCAGATGGAGCTGCCTACCAGTCCTGTGGCATGCGC | -0.83 PBM z-score against 500 random probes | – | – | – |
| NRC3_random_hg19_426_o1 (dsDNA) DNA 1: GCTGGAATCCTAGTGCTTTGGGAGGCTGAGGCTGGAGCGATTGACAGCGTAGAATGAAGG DNA 2: CCTTCATTCTACGCTGTCAATCGCTCCAGCCTCAGCCTCCCAAAGCACTAGGATTCCAGC | -0.9 PBM z-score against 500 random probes | – | -0.97 PBM z-score against 500 random probes | – |
| NRC3_random_hg19_461_o1 (dsDNA) DNA 1: GCGCCTGACTCCAGCCCACAGGCTGGGAGTGGAAGTGCGATTGACAGCGTAGAATGAAGG DNA 2: CCTTCATTCTACGCTGTCAATCGCACTTCCACTCCCAGCCTGTGGGCTGGAGTCAGGCGC | -1.25 PBM z-score against 500 random probes | – | – | – |
